B1: C004 IgG (antibody, V domains shown)
VH: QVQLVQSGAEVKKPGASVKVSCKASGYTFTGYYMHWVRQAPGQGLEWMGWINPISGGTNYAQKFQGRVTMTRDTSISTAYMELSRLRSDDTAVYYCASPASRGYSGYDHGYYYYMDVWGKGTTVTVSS
VL: AIRMTQSPSSLSASVGDRVTITCQASQDISNYLNWYQQKPGKAPKLLIYDASNLETGVPSRFSGSGSGTDFTFTISSLQPEDIATYYCQQYDNLPITFGQGTRLEIKR
notes: also called recombinant anti-S-RBD antibody C004
B2: C105 IgG (antibody, V domains shown)
VH: QVQLVESGGGLIQPGGSLRLSCAASGFTVSSNYMSWVRQAPGKGLEWVSVIYSGGSTYYADSVKGRFTISRDNSKNTLYLQMNSLRAEDTAVYYCARGEGWELPYDYWGQGTLVTVSS
VL: QSALTQPPSASGSPGQSVTISCTGTSSDVGGYKYVSWYQQHPGKAPKLMIYEVSKRPSGVPDRFSGSKSGNTASLTVSGLQAEDEADYYCSSYEGSNNFVVFGGGTKLTVLG

Target: SARS-CoV-2 Spike receptor binding domain (SpikeRBD, aa 328-533) (SARS-CoV-2, UniProt P0DTC2 328-533)
Assay: BLI on immobilised biotinylated Spike-RBD

Row | Binder | binding result
1 | B1 | binds
2 | B2 | binds
